Laboratory results: publication PMC2935386, “Dissecting the Relation between a Nuclear Receptor and GATA: Binding Affinity Studies of Thyroid Hormone Receptor and GATA2 on TSHβ Promoter”

What was measured:
[1] = target: T1, TRβ1 DBD-LBD (TR DL, TRβ1ΔAB);RXRα1 DBD-LBD (RXR DL, RXRα1ΔAB) (human;, UniProt P10828;P19793 102-461;126-462, |); assay: fluorescence anisotropy; T3; Hill n 1.8±0.1; Fluorescence anisotropy: 10 nM DNA, 20 mM Hepes pH 8.0, 50 mM NaCl, 1 mM MgCl2, 3 mM DTT, 5% glycerol, 10°C; agarose gel 1.3% in 0.5x TBE; details: protein: recombinant;recombinant; tags: His (pET28a);His (pET28a); copies: 1;1; label: 5' fluorescein (FITC) on forward strand; blunt
[2] = target: GATA2-Zf;TRβ1 DBD-LBD (TR DL, TRβ1ΔAB) (;human, UniProt P23769;P10828 291-412;102-461, |); assay: fluorescence anisotropy; T3; Hill n 1±0.2; Fluorescence anisotropy: 10 nM DNA, 20 mM Hepes pH 8.0, 50 mM NaCl, 1 mM MgCl2, 3 mM DTT, 5% glycerol, 10°C; agarose gel 1.3% in 0.5x TBE; details: protein: recombinant;recombinant; tags: His, thrombin treated;His (pET28a); copies: 1;1; label: 5' fluorescein (FITC) on forward strand; blunt
[3] = target: T1, TRβ1 DBD-LBD (TR DL, TRβ1ΔAB);RXRα1 …; assay: fluorescence anisotropy; T3; Hill n 3.7±1; text refers to previous studies [36],[37] but listed in this paper's Table 1 and Fig. 2; Fluorescence anisotropy: 10 nM DNA, 20 mM Hepes pH 8.0, 50 mM NaCl, 1 mM MgCl2, 3 mM DTT, 5% glycerol, 10°C; agarose gel 1.3% in 0.5x TBE; details: protein: recombinant;recombinant; tags: His (pET28a);His (pET28a); copies: 1;1; label: 5' fluorescein (FITC) on forward strand; blunt

GATA2-Zf;TRβ1 DBD-LBD (TR DL, TRβ1ΔAB), sequence (P23769 291-412, stated change not applied, chain 1 of 2): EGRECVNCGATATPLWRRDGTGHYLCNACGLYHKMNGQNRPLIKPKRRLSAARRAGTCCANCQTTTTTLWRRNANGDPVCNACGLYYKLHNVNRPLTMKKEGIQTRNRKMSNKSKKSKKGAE
GATA2-Zf;TRβ1 DBD-LBD (TR DL, TRβ1ΔAB), sequence (P10828 102-461, stated change not applied, chain 2 of 2): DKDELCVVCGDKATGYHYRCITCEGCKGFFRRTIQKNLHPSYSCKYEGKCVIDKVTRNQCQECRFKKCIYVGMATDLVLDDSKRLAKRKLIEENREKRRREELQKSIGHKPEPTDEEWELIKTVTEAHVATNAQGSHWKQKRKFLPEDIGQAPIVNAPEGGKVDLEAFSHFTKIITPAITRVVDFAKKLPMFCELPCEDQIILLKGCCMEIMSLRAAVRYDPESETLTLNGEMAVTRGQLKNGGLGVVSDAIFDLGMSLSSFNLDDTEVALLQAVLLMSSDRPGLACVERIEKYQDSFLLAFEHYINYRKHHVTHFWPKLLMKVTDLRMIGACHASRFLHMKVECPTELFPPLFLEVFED
T1 sequence (P10828 102-461, stated change not applied, chain 1 of 2): as the sequence (P10828 102-461, stated change not applied, chain 2 of 2) above
T1 sequence (P19793 126-462, stated change not applied, chain 2 of 2): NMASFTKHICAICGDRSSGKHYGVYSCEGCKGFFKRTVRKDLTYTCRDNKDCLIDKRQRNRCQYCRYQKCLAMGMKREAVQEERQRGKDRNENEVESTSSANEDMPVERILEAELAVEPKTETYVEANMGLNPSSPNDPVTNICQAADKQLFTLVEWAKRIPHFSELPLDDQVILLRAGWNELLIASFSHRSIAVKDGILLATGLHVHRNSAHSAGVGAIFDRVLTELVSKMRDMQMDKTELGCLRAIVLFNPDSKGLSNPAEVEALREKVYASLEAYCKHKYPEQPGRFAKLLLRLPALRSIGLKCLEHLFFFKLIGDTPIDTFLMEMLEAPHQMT

Binder | Kd [2] | also measured
TSH NRE (dsDNA) DNA 1: TGGGTCACCACAGCATCTGCTCACCAATGCAAAGT DNA 2: ACTTTGCATTGGTGAGCAGATGCTGTGGTGACCCA |  | Kd [1]: 720 ± 19 nM
TSH GATA-RE (dsDNA) DNA 1: TCAATAGATGCTTTTCAGATAAGAA DNA 2: TTCTTATCTGAAAAGCATCTATTGA | 38.6 ± 7.9 nM | 
DR4 TRE (dsDNA) DNA 1: AGTTCAGGTCACAGGAGGTCAGAG DNA 2: CTCTGACCTCCTGTGACCTGAACT |  | Kd [3]: 39.4 ± 2.2 nM
GATA-RE (canonical) (dsDNA) DNA 1: CACTTGATAACAGAAAGTGATAACTCT DNA 2: AGAGTTATCACTTTCTGTTATCAAGTG | 140 ± 29.8 nM | 
